Here are results for three molecules from patent publication US20230097381A1, “COMPOSITION, KIT AND METHOD FOR DIAGNOSIS AND TREATMENT OF PROSTATE CANCER” (RADIOMEDIX, INC., priority 2020, published 2023).

Data set [1] in a line: in vivo. The note with it: athymic nude, mouse, iv, total radioactivity. Also noted: species or system athymic nude mice. The procedure: (§1) Mice bearing LNCap and 22Rv1 xenografts were injected via the tail vein with 50-100 μCi of ^64Cu-DOTAM-PSMA reconstituted in 150-200 μL of saline. At 1 h, 2 h, and 24 hrs. post injection, while under anesthesia blood was collected by cardiac puncture and mice were sacrificed by cervical dislocation. The heart, lung liver, stomach, pancreas, spleen fat, kidney, muscle, intestines, skin and tumor were collected. Each organ was weighed, and the tissue radioactivity was measured with an automated gamma counter (2470 Wizard2 Gamma Counter, Perkin-Elmer, Waltham, Mass.). The percentage of injected dose per gram of tissue (% ID/g) was calculated. All measurements were corrected for decay.

The subject of data set [2] is PSMA-overexpressing LNCap and 22Rv1-derived xenografts. Further details: species or system Athymic Nude Mice. The note with it: mouse, in vivo. The procedure: About 5×10^6 LNCap and 22Rv1 cells suspended in 100 μL of RPMI 1640 with 50% Matrigel (Corning, Corning, N.Y.) were subcutaneously injected into upper flank of 6-7-week-old mice. Xenografts were generated in Athymic Nude Mice (Envigo, Indianapolis, Ind. and Taconic, Rensselaer, N.Y.). When xenograft tumor reached the size of 0.25 cm^3 in diameter, all mice were randomly divided in groups for PET imaging and biodistribution studies.
PET/X-Ray imaging studies were performed using GENISYS^4 scanner (Sofie Bioscience, Curlver City, Calif.). Mice were anesthetized using with isoflurane (2% in 98% oxygen) and their temperature was kept at 38° C. with a heating lamp during injection of the agent and image acquisition All images were corrected for photon attenuation, but scatter correction was not applied. Maximum-Likehood Expectation Maximization was used to create final images volumes. Static PET scans were acquired approximately at 1 h, 2 h, 4 h after intravenous injection of ^64Cu-DOTAM-PSMA in 200 μL volume. The image acquisition time was 10 minutes. VivoQuant software (Invicro, Boston, Mass.) was used to determine the ROI (Sum) for tumor, liver, kidney, muscle and salivary gland which were equivalent to % ID/g uptake of agent at various time points.

Data set [3] concerns LNCap and 22Rv1 xenografts. Also noted: species or system R2G2 strain of mice. The note with it: mouse, in vivo. On the procedure:
as §1, with “[…] strains of mice” for “Mice”

The nature of data set [4]: in vivo. Also noted: species or system athymic nude mice. The note with it: athymic nude, mouse, iv, 40 uCi, total radioactivity. On the procedure:
(§2) Athymic strains of mice bearing LNCap xenografts were injected via the tail vein with 40 μCi of ^203Pb-DOTAM-PSMA reconstituted in 200-250 μL of saline. At 1 h and 3 h post injection, while under anesthesia blood was collected by cardiac puncture and mice were sacrificed by cervical dislocation. The heart, lung liver, stomach, pancreas, spleen fat, kidney, muscle, intestines, skin and tumor were collected. Each organ was weighed, and the tissue radioactivity was measured with an automated gamma counter (2470 Wizard2 Gamma Counter, Perkin-Elmer, Waltham, Mass.). The percentage of injected dose per gram of tissue (% ID/g) was calculated. All measurements were corrected for decay.

Data set [5] deals with LNCap xenografts. The experiment in a line: in vivo. Also noted: species or system athymic nude mice. The note with it: mouse. On the procedure: as §2
Data set [6] can be described thus: in vivo. Also noted: species or system athymic nude mice. The note with it: athymic nude, mouse, iv, 15 uCi, total radioactivity. The procedure:
as §2, with “with 15” for “with 40”, “of ^212Pb-DOTAM-PSMA” for “of ^203Pb-DOTAM-PSMA”, “in 150-200” for “in 200-250”, “1 h,” for “1 h and”, “3 h,” for “3 h”, “calculated. AH” for “calculated. All”

The test system of data set [7] is LNCap xenografts. The experiment in a line: in vivo. Also noted: species or system athymic nude mice. The note with it: mouse. On the procedure: as §2, with “with 15” for “with 40”, “of ^212Pb-DOTAM-PSMA” for “of ^203Pb-DOTAM-PSMA”, “in 150-200” for “in 200-250”, “1 h,” for “1 h and”, “3 h,” for “3 h”, “calculated. AH” for “calculated. All”
This is another data set of the same source.

Bounds are passed on as bounds.

Take `NC(=O)CN1CCN(CC(N)=O)CCN(CC(=O)N[C@H](Cc2ccccc2)C(=O)N[C@H](Cc2ccccc2)C(=O)N[C@H](CCCCNC(=O)CCCCCCC(=O)NCCCC[C@H](NC(=O)N[C@@H](CCC(=O)O)C(=O)O)C(=O)O)C(=O)O)CCN(CC(N)=O)CC1` [^64Cu-DOTAM-PSMA, metal not drawn]: the tissue uptake at 24 h in data set [1] (Retention in tumor) stood at 10 ± 11.1 %ID/g; in data set [1] (uptake in kidneys), 7.8 ± 7.9 %ID/g; in data set [1] (uptake in liver) it was 12.4 ± 11.9 %ID/g. In addition, the tissue uptake at 2 h in data set [1] (Tumor uptake) came out at 24.8 ± 31.1 %ID/g; in data set [1] (off-target accumulation in kidneys) it was 20 ± 2.9 %ID/g; in data set [1] (off-target accumulation in liver) it was 45.8 ± 6.2 %ID/g. Further, the tissue uptake at 4 h in data set [1] (Tumor uptake) was 9.7 ± 10.9 %ID/g; in data set [1] (renal retention), 13 ± 0.6 %ID/g. Further, in data set [2], the “highest non-target uptake of agent (organ)” value was “liver”. For the same molecule, the “retention in LNCap and 22Rv1-derived tumors (microPET)” value in data set [2] was “confirmed retention”. Moreover, the “tumor retention in LNCap and 22Rv1 cancer cells (microPET)” value in data set [2] is “confirmed its tumor retention”. In addition, the “liver retention of trans-chelated Cu64, comparison of strains” value in data set [3] is “higher in R2G2 mice strain compared to NOG strain but it was still lower the one observed in athymic nude”. Further, in data set [3], the “tumor retention, R2G2 strain versus NOG strain” value is recorded as “much more favorable in R2G2 strain than NOG strain”.

For `NC(=O)CN1CCN(CC(N)=O)CCN(CC(=O)N[C@H](Cc2ccccc2)C(=O)N[C@H](Cc2ccccc2)C(=O)N[C@H](CCCCNC(=O)CCCCCCC(=O)NCCCC[C@H](NC(=O)N[C@@H](CCC(=O)O)C(=O)O)C(=O)O)C(=O)O)CCN(CC(N)=O)CC1` [^203Pb-DOTAM-PSMA, metal not drawn], in data set [4], the tissue uptake at 1 h came out at 16.1 ± 0.8 %ID/g and the tissue uptake at 3 h is above 4.8 %ID/g. Moreover, in data set [5], the “decrease of renal retention” value came out at 32% and the “normal organs distribution, ^203Pb- versus ^212Pb-DOTAM-PSMA” value is “very similar normal organs distribution”.

`NC(=O)CN1CCN(CC(N)=O)CCN(CC(=O)N[C@H](Cc2ccccc2)C(=O)N[C@H](Cc2ccccc2)C(=O)N[C@H](CCCCNC(=O)CCCCCCC(=O)NCCCC[C@H](NC(=O)N[C@@H](CCC(=O)O)C(=O)O)C(=O)O)C(=O)O)CCN(CC(N)=O)CC1` [^212Pb-DOTAM-PSMA, metal not drawn]: in data set [6] (Tumor uptake), the tissue uptake at 1 h amounted to 5.7 ± 0.9 %ID/g and the tissue uptake at 3 h is 7.2 ± 2.6 %ID/g. For the same molecule, in data set [6] (renal retention), the tissue uptake at 1 h was 32.2 ± 15.6 %ID/g and the tissue uptake at 3 h was determined as 17.7 ± 9.4 %ID/g. In data set [7], the “decrease of renal retention” value turned out to be 55%; the “uptake in bone and spleen” value is “not uptake of agent in bone and spleen”.

In general, tissue uptake refers to the share of the injected amount in each gram of the tissue.
